Measured values from US20180244762A1 (KODIAK SCIENCES, published 2018).

B1: OG1448 (TAF443 conjugated to the OG1802 biopolymer) (other)
heavy: LVVTPPGPELVLNVSSTFVLTCSGSAPVVWERMSQEPPQEMAKAQDGTFSSVLTLTNLTGLDTGEYFCTHNDSRGLETDERKRLYIFVPDPTVGFLPNDAEELFIFLTEITEITIPCRVTDPQLVVTLHEKKGDVALPVPYDHQRGFSGIFEDRSYICKTTIGDREVDSDAYYVYRLQVSSINVSVNAVQTVVRQGENITLMCIVIGNEVVNFEWTYPRKESGRLVEPVTDFLLDMPYHIRSILHIPSAELEDSGTYTCNVTESVNDHQDEKAINITVVESGGGGGSGGGGSEVQLVESGGGLVQPGGSLRLSCAASGYDFTHYGMNWVRQAPGKGLEWVGWINTYTGEPTYAADFKRRFTFSLDTSKSTAYLQMNSLRAEDTAVYYCAKYPYYYGTSHWYFDVWGQGTLVTVSSASTKGPSVFPLAPSSKSTSGGTAALGCLVKDYFPEPVTVSWNSGALTSGVHTFPAVLQSSGLYSLSSVVTVPSSSLGTQTYICNVNHKPSNTKVDKKVEPKSCDKTHTCPPCPAPEAAGAPSVFLFPPKPKDTLMISRTPEVTCVVVDVSHEDPEVKFNWYVDGVEVHNAKTKPREEQYNSTYRVVSVLTVLHQDWLNGKEYKCKVSNKALPAPIEKTISKAKGQPREPQVYTLPPSREEMTKNQVSLTCLVKGFYPSDIAVEWESNGQPENNYKTTPPVLDSDGSFFLYSKLTVDKSRWQQGNVFSCSVMHEALHNHYTQKSLSCSPGK
light: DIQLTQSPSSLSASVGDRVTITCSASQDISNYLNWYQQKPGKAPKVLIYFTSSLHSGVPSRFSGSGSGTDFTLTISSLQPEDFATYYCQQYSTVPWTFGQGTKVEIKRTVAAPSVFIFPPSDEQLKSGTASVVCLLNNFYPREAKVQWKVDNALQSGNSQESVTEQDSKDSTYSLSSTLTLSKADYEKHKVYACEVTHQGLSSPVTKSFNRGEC
modifications: OG1802 biopolymer (about 750 kDa, 9-arm HEMA-PC, maleimide) on the cysteine 443 residue (L443C, EU numbering)
notes: also called TAF443 polymer conjugate
B2: TAF443-3A250K (other)
heavy: LVVTPPGPELVLNVSSTFVLTCSGSAPVVWERMSQEPPQEMAKAQDGTFSSVLTLTNLTGLDTGEYFCTHNDSRGLETDERKRLYIFVPDPTVGFLPNDAEELFIFLTEITEITIPCRVTDPQLVVTLHEKKGDVALPVPYDHQRGFSGIFEDRSYICKTTIGDREVDSDAYYVYRLQVSSINVSVNAVQTVVRQGENITLMCIVIGNEVVNFEWTYPRKESGRLVEPVTDFLLDMPYHIRSILHIPSAELEDSGTYTCNVTESVNDHQDEKAINITVVESGGGGGSGGGGSEVQLVESGGGLVQPGGSLRLSCAASGYDFTHYGMNWVRQAPGKGLEWVGWINTYTGEPTYAADFKRRFTFSLDTSKSTAYLQMNSLRAEDTAVYYCAKYPYYYGTSHWYFDVWGQGTLVTVSSASTKGPSVFPLAPSSKSTSGGTAALGCLVKDYFPEPVTVSWNSGALTSGVHTFPAVLQSSGLYSLSSVVTVPSSSLGTQTYICNVNHKPSNTKVDKKVEPKSCDKTHTCPPCPAPEAAGAPSVFLFPPKPKDTLMISRTPEVTCVVVDVSHEDPEVKFNWYVDGVEVHNAKTKPREEQYNSTYRVVSVLTVLHQDWLNGKEYKCKVSNKALPAPIEKTISKAKGQPREPQVYTLPPSREEMTKNQVSLTCLVKGFYPSDIAVEWESNGQPENNYKTTPPVLDSDGSFFLYSKLTVDKSRWQQGNVFSCSVMHEALHNHYTQKSLSCSPGK
light: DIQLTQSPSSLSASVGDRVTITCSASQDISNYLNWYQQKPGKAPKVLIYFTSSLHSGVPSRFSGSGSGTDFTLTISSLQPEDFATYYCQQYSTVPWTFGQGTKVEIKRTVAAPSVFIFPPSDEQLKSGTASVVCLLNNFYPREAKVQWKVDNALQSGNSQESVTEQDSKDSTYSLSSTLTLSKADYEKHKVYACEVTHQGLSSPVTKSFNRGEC
modifications: polymer conjugate, label 3A250K; polymer and attachment site not described for this conjugate
notes: also called R3644-3A

Key:
[1] = target: T1, recombinant human PDGF-BB (human, UniProt P01127 82-190); test: competitive ELISA: OG1448 preincubated with 0.2 nM PDGF-BB plus rhVEGFA-165 at 0.2, 0.6 and 1.0 nM, competitor immobilized PDGFRb/Fc; in the presence of rhVEGFA-165 (0.2, 0.6 and 1.0 nM)
T1 construct: also called rhPDGF-BB; rhPDGFBB

[2] = target: T1, recombinant human PDGF-BB; test: cell-based or functional assay
[3] = target: T1, recombinant human PDGF-BB; test: optical biosensor (Proteon XPR36 / Biacore 2000), binder amine-coupled, rhPDGF-BB injected, 25 C
Protocol: Binding studies were performed at 25° C. and 37° C. using BioRad Proteon XPR36 and Biacore 2000 optical biosensors equipped with GLM (Proteon) and CM4 (Biacore) sensor chips and equilibrated with running buffer (10 m/M HEPES, 150 mM NaCl, 0.005% Teen-20, 0.2 mg/ml BSA).

[4] = target: T1, recombinant human PDGF-BB; test: competitive ELISA: binder preincubated with 0.2 nM rhPDGF-BB, competitor immobilized PDGFR/Fc
[5] = target: T1, recombinant human PDGF-BB; test: SPR (Biacore T200, 25 C), binder captured by anti-human IgG, PDGF-BB as analyte, average of the runs
Protocol: (§1) Each PDGF/VEGF variant was captured to a level of approximately 150 RUs. The running and sample buffer for the PDGF analysis was HBS-EP+300mM NaCl (10 mM 4-(2-hydroxyethyl)-1-piperazineethanesulfonic acid (HEPES) pH 7.4, 300 mM NaCl, 3mM ethylenediaminetetraacetic acid (EDTA), 0.05% (v/v) Tween-20). […] The surface was then regenerated with a 30 second pulse of 3M MgCl₂, a 30 second pulse of an ionic regeneration buffer (0.46M KSCN, 1.83 M MgCl2, 0.92 M urea, and 1.83 M guanidine-HCI pH7.4, Andersson et al., Analytical Chemistry, 1999) and then equilibrated with a 30 second pulse of HBS-EP+ 300 mM NaCl running buffer.
(§2) All SPR assays were performed at 25° C. with a data collection rate of1Hz using a Biacore T200 instrument (GE Healthcare). The resulting PDGP and VEGP sensorgrams were double referenced using both a control surface and buffer injections. The rate constants were determined by fitting the data to a 1:1 Langmuir model with Biacore T200 evaluation software v2.0 and the equation […].

[6] = target: T1, recombinant human PDGF-BB; test: SPR (Biacore T200, 25 C), binder captured by anti-human IgG, PDGF-BB as analyte, run A
Protocol: as §1, §2

[7] = target: T1, recombinant human PDGF-BB; test: SPR (Biacore T200, 25 C), binder captured by anti-human IgG, PDGF-BB as analyte, run B
Protocol: as §1, §2

[8] = target: T1, recombinant human PDGF-BB; test: SPR (Biacore T200, 25 C), binder captured by anti-human IgG, PDGF-BB as analyte, run C
Protocol: as §1, §2

T1 sequence (P01127 82-190): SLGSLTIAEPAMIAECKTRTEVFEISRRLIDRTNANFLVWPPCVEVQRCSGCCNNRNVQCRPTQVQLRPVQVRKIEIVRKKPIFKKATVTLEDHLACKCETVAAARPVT

Row | Binder | IC50 [1] [pM] | Inhibition of PDGF induced proliferation of HPVPs, IC50 [2] [pM] | Kd [3] [pM] | IC50 [4] [pM] | Kd [5] [pM] | Kd [6] [pM] | koff [6] [s⁻¹] | kon [6] [M⁻¹ s⁻¹] | t½ [6] [h] | Kd [7] [pM] | koff [7] [s⁻¹] | kon [7] [M⁻¹ s⁻¹] | t½ [7] [h] | Kd [8] [pM] | koff [8] [s⁻¹] | kon [8] [M⁻¹ s⁻¹] | t½ [8] [h]
1 | B1 | 25 | 2900 | 17 | 54 |  |  |  |  |  |  |  |  |  |  |  |  | 
2 | B2 |  |  |  |  | 1.5 | 1.03 | 5.92e-05 | 5.76e+07 | 3.25 | 1.73 | 4.96e-05 | 2.86e+07 | 3.88 | 1.6 | 7.52e-05 | 4.71e+07 | 2.56
